Results taken from the supplement of paper PMC7125110.
± gives the standard error. Fewer inactive variants are shown than the library holds.

B1: glmS ribozyme (parent)
chain: AUAAAAGCGCCAGAACUACAGAAAUGUAGUUGACGAGGAGGAGGUUUAUCGAAUUUUCGGCGGAUGCCUCCAAA

Variants of: B1
Experiment: self-cleavage kobs at 2500 uM GlcN6P; higher = faster cleavage; RNA array
Conditions: with glucosamine-6-phosphate
Outline: (§1)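 Sequenced MiSeq chips were the platform: E. coli RNA polymerase transcribed barcoded ribozyme variants on them in situ, and a hybridised Cy3 probe tracked these at 37 °C. After glucosamine-6-phosphate (40 μM to 10 mM) in HEPES/KCl/Mg(OAc)2 buffer was flowed in, tiles were imaged over ~14 h. Signals normalised to baseline and to non-cleaving reference variants were reduced to per-tile medians and fit to one- or two-exponential decays to obtain kobs. kcat and KM were derived through weighted Michaelis–Menten fits across concentrations.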
A52U C67A C71U was tested, and the “self-cleavage kobs at 2500 uM GlcN6P” value was 7.56e-05 ± 3.1e-05 s⁻¹. For C11G G13A C16G G29C G37C A53G, the “self-cleavage kobs at 2500 uM GlcN6P” value was less than 1e-05 s⁻¹. For U30A U31A G40A U57G, the “self-cleavage kobs at 2500 uM GlcN6P” value was less than 1e-05 s⁻¹. In the case of A6G A39U U49C, the “self-cleavage kobs at 2500 uM GlcN6P” value is reported as less than 1e-05 s⁻¹. In the case of C10G C34G A48C, the “self-cleavage kobs at 2500 uM GlcN6P” value is reported as less than 1e-05 s⁻¹. In the case of C10A U54C, the “self-cleavage kobs at 2500 uM GlcN6P” value is reported as less than 1e-05 s⁻¹. In the case of C8A A33C G40A U47G, the “self-cleavage kobs at 2500 uM GlcN6P” value is reported as less than 1e-05 s⁻¹. In the case of A33C G40U G62A C70G, the “self-cleavage kobs at 2500 uM GlcN6P” value is reported as less than 1e-05 s⁻¹. For A12G C68A C71A, the “self-cleavage kobs at 2500 uM GlcN6P” value was less than 1e-05 s⁻¹. With U30C U45G C70U the “self-cleavage kobs at 2500 uM GlcN6P” value was 7.88e-05 ± 1.9e-05 s⁻¹. A33C G60U G62C was tested, and the “self-cleavage kobs at 2500 uM GlcN6P” value was less than 1e-05 s⁻¹. In the case of A33G U46A G59C C67G C68G, the “self-cleavage kobs at 2500 uM GlcN6P” value is reported as 4.87e-05 ± 2.1e-05 s⁻¹. For A48G U69G, the “self-cleavage kobs at 2500 uM GlcN6P” value was 0.000101 ± 3.7e-05 s⁻¹. For G43A G44A U47A G59C, the “self-cleavage kobs at 2500 uM GlcN6P” value was less than 1e-05 s⁻¹. In the case of A12G A42C G59U G63U, the “self-cleavage kobs at 2500 uM GlcN6P” value is reported as less than 1e-05 s⁻¹. A15C U55A G60C was tested, and the “self-cleavage kobs at 2500 uM GlcN6P” value was less than 1e-05 s⁻¹. With U31G G32A U56G the “self-cleavage kobs at 2500 uM GlcN6P” value was 9.1e-05 ± 2.5e-05 s⁻¹. C11U A48U G60U was tested, and the “self-cleavage kobs at 2500 uM GlcN6P” value was less than 1e-05 s⁻¹. With C8U A39U C67G the “self-cleavage kobs at 2500 uM GlcN6P” value was less than 1e-05 s⁻¹. G9A A33U A39C A42U U46G U55A G60U A64U was tested, and the “self-cleavage kobs at 2500 uM GlcN6P” value was less than 1e-05 s⁻¹. With A53U U54C U55A A64G the “self-cleavage kobs at 2500 uM GlcN6P” value was 0.00369 ± 0.00074 s⁻¹. For G13U A39C A48C, the “self-cleavage kobs at 2500 uM GlcN6P” value was less than 1e-05 s⁻¹. For A6C U31C G41C A42G U45G G59C G66U, the “self-cleavage kobs at 2500 uM GlcN6P” value was less than 1e-05 s⁻¹. In the case of C11G U30C G40C, the “self-cleavage kobs at 2500 uM GlcN6P” value is reported as less than 1e-05 s⁻¹. With A14G A33U G60U the “self-cleavage kobs at 2500 uM GlcN6P” value was less than 1e-05 s⁻¹. U31C G37U U65A was tested, and the “self-cleavage kobs at 2500 uM GlcN6P” value was less than 1e-05 s⁻¹. A12C U30A G60A was tested, and the “self-cleavage kobs at 2500 uM GlcN6P” value was less than 1e-05 s⁻¹. With G44A G66U C67G the “self-cleavage kobs at 2500 uM GlcN6P” value was 0.00142 ± 0.00035 s⁻¹. For A14G G37U G44U, the “self-cleavage kobs at 2500 uM GlcN6P” value was less than 1e-05 s⁻¹. For U47G A52C G60C C71A, the “self-cleavage kobs at 2500 uM GlcN6P” value was less than 1e-05 s⁻¹. In the case of G7A U30G G32A A39G, the “self-cleavage kobs at 2500 uM GlcN6P” value is reported as less than 1e-05 s⁻¹. For A15G A39U G60C, the “self-cleavage kobs at 2500 uM GlcN6P” value was less than 1e-05 s⁻¹. For G13A U30C G59A, the “self-cleavage kobs at 2500 uM GlcN6P” value was less than 1e-05 s⁻¹. U46A U56G C58U G59U was tested, and the “self-cleavage kobs at 2500 uM GlcN6P” value was less than 1e-05 s⁻¹. U30A G43C G51C C67G was tested, and the “self-cleavage kobs at 2500 uM GlcN6P” value was less than 1e-05 s⁻¹. G32A G35A C61U C71U was tested, and the “self-cleavage kobs at 2500 uM GlcN6P” value was less than 1e-05 s⁻¹. For G37C C67U C71A, the “self-cleavage kobs at 2500 uM GlcN6P” value was 5.9e-05 ± 2.4e-05 s⁻¹. For A6C G32A G59C, the “self-cleavage kobs at 2500 uM GlcN6P” value was less than 1e-05 s⁻¹. With C11U G29C G44U G63U U65C C67U C71U the “self-cleavage kobs at 2500 uM GlcN6P” value was less than 1e-05 s⁻¹. With A53G A64G C67G the “self-cleavage kobs at 2500 uM GlcN6P” value was 0.000335 ± 9.1e-05 s⁻¹. C10G C16G G32C A42U G60U was tested, and the “self-cleavage kobs at 2500 uM GlcN6P” value was less than 1e-05 s⁻¹. A33U G41U G62U was tested, and the “self-cleavage kobs at 2500 uM GlcN6P” value was less than 1e-05 s⁻¹. For A12C A14G G40C U56G C68U, the “self-cleavage kobs at 2500 uM GlcN6P” value was less than 1e-05 s⁻¹. For U47A C50A G59U G66C, the “self-cleavage kobs at 2500 uM GlcN6P” value was less than 1e-05 s⁻¹. In the case of A33G G38U G44A C67G C71U, the “self-cleavage kobs at 2500 uM GlcN6P” value is reported as less than 1e-05 s⁻¹. In the case of C11U G44C A52U G60C, the “self-cleavage kobs at 2500 uM GlcN6P” value is reported as less than 1e-05 s⁻¹. In the case of G7U A39U C50A, the “self-cleavage kobs at 2500 uM GlcN6P” value is reported as less than 1e-05 s⁻¹. For U45A U47A G59U C61A, the “self-cleavage kobs at 2500 uM GlcN6P” value was less than 1e-05 s⁻¹. A15G G32C C68G was tested, and the “self-cleavage kobs at 2500 uM GlcN6P” value was less than 1e-05 s⁻¹. In the case of C10U A15G U31A G32U U65G, the “self-cleavage kobs at 2500 uM GlcN6P” value is reported as less than 1e-05 s⁻¹. With A12G C16U C67U the “self-cleavage kobs at 2500 uM GlcN6P” value was 0.000252 ± 5.2e-05 s⁻¹. With A15U U56C C68A C71G the “self-cleavage kobs at 2500 uM GlcN6P” value was less than 1e-05 s⁻¹. With C10G G40A G60U the “self-cleavage kobs at 2500 uM GlcN6P” value was less than 1e-05 s⁻¹. In the case of G43A U46C A53G, the “self-cleavage kobs at 2500 uM GlcN6P” value is reported as less than 1e-05 s⁻¹. In the case of U45A U47G G51U A64G U65G, the “self-cleavage kobs at 2500 uM GlcN6P” value is reported as less than 1e-05 s⁻¹. With C11U G32C C50G C61G the “self-cleavage kobs at 2500 uM GlcN6P” value was 0.000267 ± 7.4e-05 s⁻¹. With G43A U54A the “self-cleavage kobs at 2500 uM GlcN6P” value was 3.85e-05 ± 1.7e-05 s⁻¹. For C11A U45A U56A, the “self-cleavage kobs at 2500 uM GlcN6P” value was 9.98e-05 ± 2.9e-05 s⁻¹. C11A C16A A42C was tested, and the “self-cleavage kobs at 2500 uM GlcN6P” value was less than 1e-05 s⁻¹. With U45G U56A C71U the “self-cleavage kobs at 2500 uM GlcN6P” value was 0.000974 ± 0.00025 s⁻¹. For G40C U56C C71A, the “self-cleavage kobs at 2500 uM GlcN6P” value was 9.43e-05 ± 2.2e-05 s⁻¹. G32A U69G C70G C71U was tested, and the “self-cleavage kobs at 2500 uM GlcN6P” value was 0.00186 ± 0.00064 s⁻¹. In the case of U30A G40A C71A, the “self-cleavage kobs at 2500 uM GlcN6P” value is reported as 0.00142 ± 0.0005 s⁻¹. In the case of A14G U55G C68A, the “self-cleavage kobs at 2500 uM GlcN6P” value is reported as 0.000208 ± 5.1e-05 s⁻¹. In the case of C8G G37A A39U, the “self-cleavage kobs at 2500 uM GlcN6P” value is reported as less than 1e-05 s⁻¹. In the case of G13C U47A U69G, the “self-cleavage kobs at 2500 uM GlcN6P” value is reported as 0.000497 ± 0.00015 s⁻¹. G43A C50G U69G was tested, and the “self-cleavage kobs at 2500 uM GlcN6P” value was less than 1e-05 s⁻¹. In the case of C10G A42C U45G, the “self-cleavage kobs at 2500 uM GlcN6P” value is reported as less than 1e-05 s⁻¹. With U30C A42C U46A the “self-cleavage kobs at 2500 uM GlcN6P” value was less than 1e-05 s⁻¹. U46G C61A C70G was tested, and the “self-cleavage kobs at 2500 uM GlcN6P” value was less than 1e-05 s⁻¹. C11U G29A U49G G62A C67G was tested, and the “self-cleavage kobs at 2500 uM GlcN6P” value was less than 1e-05 s⁻¹. For U31C G32C A39G, the “self-cleavage kobs at 2500 uM GlcN6P” value was 0.000381 ± 0.00015 s⁻¹. In the case of G37A G40C U47G U56G G60C C71G, the “self-cleavage kobs at 2500 uM GlcN6P” value is reported as less than 1e-05 s⁻¹. With C34G G38A G44U G63A the “self-cleavage kobs at 2500 uM GlcN6P” value was less than 1e-05 s⁻¹. In the case of A6U A33U C68G, the “self-cleavage kobs at 2500 uM GlcN6P” value is reported as less than 1e-05 s⁻¹. In the case of A33C G37A U47A, the “self-cleavage kobs at 2500 uM GlcN6P” value is reported as less than 1e-05 s⁻¹. For A52C A53G U57G C70G, the “self-cleavage kobs at 2500 uM GlcN6P” value was 5.76e-05 ± 2.3e-05 s⁻¹. A6U C16G C71G was tested, and the “self-cleavage kobs at 2500 uM GlcN6P” value was 0.000356 ± 0.00014 s⁻¹.

Variants of: B1
Experiment: self-cleavage kobs at 10000 uM GlcN6P; higher = faster cleavage; RNA array
Conditions: with glucosamine-6-phosphate
Outline: as §1
For A6C G35C A52C G66U, the “self-cleavage kobs at 10000 uM GlcN6P” value was less than 1e-05 s⁻¹. For A48G U69G, the “self-cleavage kobs at 10000 uM GlcN6P” value was 3.66e-05 ± 1.3e-05 s⁻¹. In the case of U31G G32A U56G, the “self-cleavage kobs at 10000 uM GlcN6P” value is reported as 0.000522 ± 9.3e-05 s⁻¹. For A6C U31C G41C A42G U45G G59C G66U, the “self-cleavage kobs at 10000 uM GlcN6P” value was less than 1e-05 s⁻¹. With A14G A33U G60U the “self-cleavage kobs at 10000 uM GlcN6P” value was less than 1e-05 s⁻¹. In the case of A12C U30A G60A, the “self-cleavage kobs at 10000 uM GlcN6P” value is reported as less than 1e-05 s⁻¹. With G29A G32U A52G the “self-cleavage kobs at 10000 uM GlcN6P” value was 3.76e-05 ± 1.7e-05 s⁻¹. A12G A36U A48C A53C G66A C70G was tested, and the “self-cleavage kobs at 10000 uM GlcN6P” value was less than 1e-05 s⁻¹. A14U A42G C58A was tested, and the “self-cleavage kobs at 10000 uM GlcN6P” value was 0.000409 ± 0.00014 s⁻¹. For C8U G41U A48U C71G, the “self-cleavage kobs at 10000 uM GlcN6P” value was less than 1e-05 s⁻¹.
